17 molecules from US20120094909A1 (Bristol-Myers Squibb, published 2012) can be followed below.

B1: 2011H05 (designed binder)
chain: MGVSDVPRDLEVVAATPTSLLISWVPSSHAYGYYRITYGETGGNSPVQEFTVPVGVGTATISGLKPGVDYTITVYAVEYAFEGAGYYHRPISINYRTEIDKPSQHHHHHH
notes: also called ATI001091
B2: 1922G04 (designed binder)
chain: B1 chain with V25R, S27P, V54I, V56K, A80P, F81W, E82K, A84S
notes: also called ATI001057; ATI-1057
B3: 1923B02 (designed binder)
chain: B1 chain with V25T, S27P, S28P, H29K, A30G, V56E, A80T, F81Y, E82N
B4: 2382F05 (designed binder)
chain: MGVSDVPRDLEVVAATPTSLLISWDAPAEAGKHYGYYRITYGETGGNSPVQEFTVPVSKGTATISGLKPGVDYTITVYAVEFDFPGAGYYHRPISINYRTEIDKPSQHHHHHH
notes: Anti-PCSK9 Adnectin, His6-tagged
B5: 2381B08 (designed binder)
chain: MGVSDVPRDLEVVAATPTSLLISWDAPADGGYGYYRITYGETGGNSPVQEFTVPSSKGTATISGLKPGVDYTITVYAVEYTFPGAGYYHRPISINYRTEIDKPSQHHHHHH
notes: as for B4
B6: 2382E05 (designed binder)
chain: B5 chain with D29E, S55V, Y80F, T81D
notes: as for B4
B7: 2382E03 (designed binder)
chain: B5 chain with D29G, G30D, S55V, Y80F, T81D
notes: as for B4
B8: 2382G04 (designed binder)
chain: B5 chain with D29G, Y80F, T81D
notes: as for B4
B9: 2381H09 (designed binder)
chain: B5 chain with D29G, S55V, Y80F, T81D, P83V
notes: as for B4
B10: 2381G09 (designed binder)
chain: B5 chain with D29G, G30D, S55V, Y80F
notes: as for B4
B11: 2382D03 (designed binder)
chain: B5 chain with G30E, G31A, S55V, Y80F, T81D
notes: as for B4
B12: 2381F11 (designed binder)
chain: B5 chain with S55V, G58S
notes: as for B4
B13: 2382C05 (designed binder)
chain: B5 chain with G31A, S55V, T81S
notes: as for B4
B14: 2382H03 (designed binder)
chain: B5 chain with D29E, G31A, S55V, T81P, F82Y, G84F
notes: as for B4
B15: 2451C06 (designed binder)
chain: MGVSDVPRDLEVVAATPTSLLISWDAPAGAASYGYYRITYGETGGNSPVQEFTVPVSKGTATISGLKPGVDYTITVYAVEFPFPGAGYYHRPISINYRTEIDKPSQHHHHHH
notes: as for B4
B16: 1813E02 (designed binder)
chain: B1 chain with V25S, S27P, S28A, H29N, A30G, V56R, A80T, F81Y, E82K, A84S
notes: as for B4
B17: 1784F03 (designed binder)
chain: B1 chain with V25R, S27P, S28I, V54I, G55V, V56E, A80T, E82K, G83H, A84S
notes: as for B4

Usually Kd stands for the equilibrium constant for the complex coming apart. The term IC50 denotes the concentration needed to halve the response being measured. A word on the EC50: it is the midpoint of the concentration-response curve. By koff is commonly meant the rate constant with which the complex falls apart. In general, kon refers to a measure of how fast the partners come together.

Substitutions are numbered along the chain they refer to.

The first experiment concerns the target T1, human PCSK9 (proprotein convertase subtilisin kexin type 9) (human, UniProt Q8NBP7 31-692). In words: cell-based or functional assay.
In the case of B1, the “EC50 (nM), PCSK9-induced LDLR depletion from HepG2 cell surface” value is 8.85 nM and the “percentage of PCSK9 inhibition at 75 nM” value amounted to 177%.

The next experiment addresses T1, human PCSK9 (proprotein convertase …). In words: SPR (ProteOn), 25 C.
In turn, B2 came in with a Kd of 0.09 nM.
Molecule B3 displayed a Kd of 0.173 nM.
For B1, the dissociation constant (Kd) came out at 0.08 nM.

For another experiment, the target named is T2, human PCSK9 (proprotein convertase subtilisin kexin type 9) (human, UniProt Q8NBP7 31-692).
T2 construct: Directly immobilized (SPR ProteOn), biotinylated (BLI), or in solution, depending on the assay; also called hPCSK9
In words: BLI Octet Red, 37 C. As to the method:
Tips were then immersed into a buffer-only well for observation of Adnectin dissociation. Experiments were performed in a temperature controlled environment at either 25 or 37° C., and the oscillation speed was set at 1500 rpm.
Binding interaction analysis was performed using proprietary software from Fortebio (Fortebio Data Analysis Software version 6.3.0.36). Global fits were performed for all samples, using a 1:1 binding model. The nature of these global fits constrained all values of concentration to a single pair of association and dissociation rates that were themselves constrained to each other. Affinities (KD), association and dissociation rates were averaged over the various loading levels used in the analysis.
B4: the Kd turned out to be 4.54 nM.
For the molecule B5, the Kd was 4.11 nM.
Still for that read-out and setting: the value for B6 was 0.604 nM; that for B7 was 2.94 nM; that for B8 was 1.11 nM.
B9: the Kd turned out to be 3.23 nM.
In turn, B10 came in with a Kd of 1.12 nM.
Molecule B11 gave a Kd of 1.53 nM.
B12 showed a Kd of 1.59 nM.
B13: the Kd was 2.49 nM.
On to B14, for which the Kd was determined as 0.677 nM.
The same measure, in the same setting: the value for B15 was 1.27 nM.

Another experiment has as its target T1, human PCSK9 (proprotein convertase …). In words: cell-based or functional assay. The source holds these as a separate data set.
B2: the “LDLR Depletion (% inhibition at 75 nM)” value was determined as 105% and the “LDLR Depletion EC50” value was found to be 10 nM.
On the same counts, the results for B3 are 178% and 23 nM.
As to B1, the “LDLR Depletion (% inhibition at 75 nM)” value came out at 198% and the “LDLR Depletion EC50” value turned out to be 12 nM.

A further experiment has as its target T2, human PCSK9 (proprotein convertase …). In words: cell-based or functional assay.
For B16, the “LDLR Depletion EC50” value turned out to be 16 nM.
On the same count and under the same terms, the value for B17 was 26 nM.

The target is the same in a further experiment. The experiment in a line: FRET, competitor ATI000972. From the text:
(§1) Table 11 summarizes the overall data from these three FRET assays.
B16 gave an IC50 of 2.4 nM.
Still for that read-out and setting: the value for B17 was 1.9 nM.

Another experiment shares this target. In words: FRET, competitor ATI001125.
Text: as §1
As for B4, the IC50 came to 0.9 nM.
B5 displayed an IC50 of 1 nM.
On the same count and under the same terms, with B6 the figure was 0.4 nM; with B7, 0.5 nM.
Same read-out and setting: with B8 the figure was 0.5 nM.
Same read-out and setting: with B9 the figure was 0.5 nM; with B10, 1.1 nM; with B11, 0.6 nM.
Molecule B12 returned an IC50 of 0.8 nM.
The molecule B13 yielded an IC50 of 0.9 nM.
Still for that read-out and setting: with B14 the figure was 0.3 nM.
On the same count and under the same terms, the value for B15 was 0.4 nM.

Another experiment shares this target. The experiment in a line: FRET, competitor EGFA peptide.
Text: as §1
B16 registered an EC50 of 2.7 nM and an IC50 of 1.3 nM.
Take B17: the EC50 came out at 2.01 nM and the IC50 is 2 nM.
The molecule B4 registered an EC50 of 2.4 nM and an IC50 of 2.4 nM.
In turn, B5 showed an EC50 of 2.6 nM and an IC50 of 2.6 nM.
B6 came in with an EC50 of 2.8 nM and an IC50 of 2.8 nM.
In the case of B7, the EC50 stood at 2.4 nM and the IC50 turned out to be 2.4 nM.
B8 returned an EC50 of 2.9 nM and an IC50 of 2.9 nM.
As to B9, the EC50 was 3.4 nM and the IC50 was 3.4 nM.
With B10, the EC50 is 3.1 nM and the IC50 turned out to be 3.1 nM.
B11 yielded an EC50 of 3.3 nM and an IC50 of 3.3 nM.
For B12, it took 4 nM to reach a half-maximal effect (EC50) and the IC50 was 4 nM.
In turn, B13 showed an EC50 of 4 nM and an IC50 of 4 nM.
In turn, B14 had an EC50 of 3.4 nM and an IC50 of 3.4 nM.
As to B15, the EC50 is 1.2 nM and the IC50 was 1.2 nM.

The next experiment has as its target cynomolgus monkey PCSK9 (cynomolgus monkey, UniProt A0A7N9D9N8 150-747). In words: FRET, competitor EGFA peptide.
Text: as §1
In turn, B16 returned an EC50 of 118 nM and an IC50 of 118 nM.
The molecule B17 registered an EC50 of 106 nM and an IC50 of 106 nM.
As for B4, the EC50 stood at 14.6 nM.
On the same count and under the same terms, with B5 the figure was 27.1 nM; with B6, 12.6 nM; with B7, 10.8 nM.
The molecule B8 registered a concentration giving a half-maximal response (EC50) of 20.1 nM.
Same read-out and setting: with B9 the figure was 20.2 nM; with B10, 25.2 nM; with B11, 11.8 nM.
Molecule B12 had an EC50 of 26.5 nM.
On the same count and under the same terms, the value for B13 was 27.2 nM; that for B14 was 19.8 nM.
On the same count and under the same terms, with B15 the figure was 24.7 nM.

The next experiment addresses T2, human PCSK9 (proprotein convertase …). The experiment in a line: BLI, biotinylated hPCSK9 on sensor tips. A general note: Biolayer interferometry detects binding as a change in optical thickness at a sensor tip.
For the molecule B4, the affinity, expressed as Kd, was 4.54 nM; the koff came out at 0.00109 s⁻¹; the kon was determined as 244000 M⁻¹ s⁻¹.
On the same counts, the results for B5 are 4.11 nM, 0.00094 s⁻¹ and 213000 M⁻¹ s⁻¹.
With B6, the Kd amounted to 0.604 nM, the koff was found to be 0.00025 s⁻¹ and the kon came out at 436000 M⁻¹ s⁻¹.
In the same order, the values of B7 are 2.94 nM, 0.000596 s⁻¹ and 220000 M⁻¹ s⁻¹.
In the same order, the values of B8 are 1.11 nM, 0.000464 s⁻¹ and 419000 M⁻¹ s⁻¹.
On the same counts, the results for B9 are 3.23 nM, 0.00046 s⁻¹ and 136000 M⁻¹ s⁻¹.
B10 showed a Kd of 1.12 nM, a koff of 0.000291 s⁻¹ and a kon of 271000 M⁻¹ s⁻¹.
In turn, B11 displayed a Kd of 1.53 nM, a koff of 0.000663 s⁻¹ and a kon of 354000 M⁻¹ s⁻¹.
In the same order, the values of B12 are 1.59 nM, 0.000522 s⁻¹ and 323000 M⁻¹ s⁻¹.
The molecule B13 yielded a Kd of 2.49 nM, a koff of 0.000879 s⁻¹ and a kon of 368000 M⁻¹ s⁻¹.
On the same counts, the results for B14 are 0.677 nM, 0.000557 s⁻¹ and 471000 M⁻¹ s⁻¹.
Molecule B15 gave a Kd of 1.27 nM, a koff of 0.000435 s⁻¹ and a kon of 347000 M⁻¹ s⁻¹.

A further experiment shares this target. In words: FRET direct binding, anti-his6 antibody.
Text: as §1
In turn, B16 came in with an EC50 of 2.3 nM.
As to B17, the midpoint of the response, the EC50, lay at 1.6 nM.
The same measure, in the same setting: with B4 the figure was 3.8 nM; with B5, 4.1 nM; with B6, 3.8 nM.
Still for that read-out and setting: the value for B7 was 3.7 nM; that for B8 was 3.6 nM; that for B9 was 4.1 nM.
For B10, the response was half-maximal at 4.5 nM (EC50).
As for B11, the EC50 was found to be 3.3 nM.
As for B12, the EC50 is less than 1 nM.
Still for that read-out and setting: the value for B13 was 3.4 nM; that for B14 was 3.8 nM; that for B15 was 5.5 nM.

Another experiment deals with T1, human PCSK9 (proprotein convertase …). The experiment in a line: PCSK9:EGFA FRET, competitor EGFA peptide.
Molecule B2 gave an EC50 of 1.2 nM.
On the same count and under the same terms, the value for B3 was 2.3 nM.
On the same count and under the same terms, the value for B1 was 2.7 nM.
